From doi:10.1101/2025.08.01.667454 (bioRxiv, 2025)
One block for each binder: values may come before it.

B2: BAF60A^YLD+SWIB (BAF60A residues 144-407) (domain or fragment, human, UniProt Q96GM5 144-407, looked up)
chain: SQAYMDLLAFERKLDQTIMRKRLDIQEALKRPIKQKRKLRIFISNTFNPAKSDAEDGEGTVASWELRVEGRLLEDSALSKYDATKQKRKFSSFFKSLVIELDKDLYGPDNHLVEWHRTATTQETDGFQVKRPGDVNVRCTVLLMLDYQPPQFKLDPRLARLLGIHTQTRPVIIQALWQYIKTHKLQDPHEREFVICDKYLQQIFESQRMKFSEIPQRLHALLMPPEPIIINHVISVDPNDQKKTACYDIDVEVDDTLKTQMNSF

What was measured:
[1] = biological target: B2; experiment: ITC
[2] = biological target: B2; experiment: fluorescence polarisation
[3] = biological target: B2; experiment: fluorescence polarisation; remark: listed apart in the source
[4] = biological target: MBP-tagged full-length PU.1 (human, UniProt P17947 1-270); experiment: ITC
[5] = biological target: PU.1[61–270] (human, UniProt P17947 61-270); experiment: ITC
[6] = biological target: PU.1^FL S75A (human, UniProt P17947 1-270, S75A); experiment: fluorescence polarisation

Binder: SEFESFAENNFTELQSVQPPQLQQLYRHMELEQMHVLDTPM (peptide, UniProt P17947 60-100, looked up) [PU.1[60–100]]
Kd [1]: 1.25 µM

B1: PU.1[1–117] (domain or fragment, human, UniProt P17947 1-117, looked up)
chain: MLQACKMEGFPLVPPPSEDLVPYDTDLYQRQTHEYYPYLSSDGESHSDHYWDFHPHHVHSEFESFAENNFTELQSVQPPQLQQLYRHMELEQMHVLDTPMVPPHPSLGHQVSYLPRM
Kd [1]: 2.8 µM

Binder: B2
Kd [4]: 1.26 µM | stoichiometry N [4]: 1 | Kd [5]: 3.23 µM | binding result [6]: binds

More lines, now with the values ahead:

Kd [1]: 2.57 µM | IC50 [2]: 2.37 µM
Binder: FTELQSVQPPQLQQLYRHMELEQMHVLDTPM (peptide, UniProt P17947 70-100, looked up) [PU.1[70–100]]

Kd [3]: 0.92 µM
Binder: CEFESFAENNFTELQSVQPPQLQQLYRHMELEQMHVLDTPM (peptide, UniProt P17947 60-100, looked up, BODIPY TMR C5 maleimide on the cysteine introduced at position 60) [PU.1[60–100]^TMR]

binding result [2]: binds
Binder: CEFESFAENNFTELQSVQPPQLQQLYRHMELEQMHVLDTPM (peptide, UniProt P17947 60-100, looked up) [PU.1^60C-100]
